These results are taken from patent publication US20240239863A1, “GIP RECEPTOR AGONIST AND USE THEREOF” (HANGZHOU ZHONGMEIHUADONG PHARMACEUTICAL CO., LTD., priority 2022, published 2024).

Non-standard residues stand in square brackets, D forms with d. No end group written: not given here. Aib = CC(C)(N)C(=O)O

Assay [1] concerns the target T1, human GIP receptor (glucose-dependent insulinotropic peptide receptor, GIPR) (human, UniProt P48546 22-466).
T1 sequence (looked up): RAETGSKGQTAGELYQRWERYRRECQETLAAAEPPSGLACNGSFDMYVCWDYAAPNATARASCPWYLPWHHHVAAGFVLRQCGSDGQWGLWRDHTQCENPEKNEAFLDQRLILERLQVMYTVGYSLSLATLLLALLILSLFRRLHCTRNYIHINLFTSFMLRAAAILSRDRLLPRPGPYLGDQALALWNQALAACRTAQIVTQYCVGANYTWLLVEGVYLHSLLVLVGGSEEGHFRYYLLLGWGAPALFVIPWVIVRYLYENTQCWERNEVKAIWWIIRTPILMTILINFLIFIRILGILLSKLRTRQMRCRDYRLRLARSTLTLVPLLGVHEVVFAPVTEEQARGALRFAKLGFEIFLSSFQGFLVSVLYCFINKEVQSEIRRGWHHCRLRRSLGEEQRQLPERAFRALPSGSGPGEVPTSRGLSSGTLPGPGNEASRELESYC
Put plainly: cell-based or functional assay.

The target of a further assay is human GLP-1 receptor (human, UniProt P43220 24-463). Put plainly: cell-based or functional assay.

Turning to Y[Aib]EGTFISDYSIALDRLHQEDFVKWLLAQRG (also: long-acting conjugating component, site and structure not given here) [Peptide 15 (long-acting conjugate of GIP analog, Seq ID. 15)], the “EC50(pM), cell agonistic activity (cAMP, HTRF)” value (“EC50(pM) … (cAMP, HTRF)” for short) in assay [1] came to 9.14 pM. Also, in the assay with human GLP-1 receptor, the “EC50(pM), cell agonistic activity” value was greater than 100 pM.

Turning to Y[Aib]EGTFISDYSIALDELHQKDFVNWLLAQRG (also: long-acting conjugating component, site and structure not given here) [Peptide 6 (long-acting conjugate of GIP analog, Seq ID. 6)], the “EC50(pM) … (cAMP, HTRF)” value in assay [1] came out at 32.2 pM. Besides, the “EC50(pM), cell agonistic activity” value with human GLP-1 receptor is greater than 100 pM.

Consider Y[Aib]EGTFISDYSIALDRLHQQDFVNWLLAQKG (also: long-acting conjugating component, site and structure not given here) [Peptide 18 (long-acting conjugate of GIP analog, Seq ID. 18)], for which, in assay [1], the “EC50(pM) … (cAMP, HTRF)” value stood at 21.1 pM. Also, in the assay with human GLP-1 receptor, the “EC50(pM), cell agonistic activity” value was greater than 100 pM.

With Y[Aib]EGTFISDYSIALDRIHQQDFVKWLLAQRG (also: long-acting conjugating component, site and structure not given here) [Peptide 13 (long-acting conjugate of GIP analog, Seq ID. 13)], in assay [1], the “EC50(pM) … (cAMP, HTRF)” value is 5.61 pM. The “EC50(pM), cell agonistic activity” value with human GLP-1 receptor is greater than 100 pM.

On to Y[Aib]EGTFISDYSIALDRLHQQDFVKWLLAQRG (also: long-acting conjugating component, site and structure not given here) [Peptide 17 (long-acting conjugate of GIP analog, Seq ID. 17)], for which the “EC50(pM) … (cAMP, HTRF)” value in assay [1] is 25.7 pM. In the assay with human GLP-1 receptor, the “EC50(pM), cell agonistic activity” value was greater than 100 pM.

Turning to Y[Aib]EGTFISDYSIALDRIHQQDFVNWLLAQK(18‑(((23R)-23-carboxyl-2,11,20-trioxo-10,19-diaza-4,7,13,16-tetraoxatricosyl-23-yl)amino)‑18‑oxooctadecanoic acid acetyl)G, in assay [1], the “EC50(pM) … (cAMP, HTRF)” value was 3.5 pM. Moreover, in the assay with human GLP-1 receptor, the “EC50(pM), cell agonistic activity” value was greater than 100 pM.

Take Y[Aib]EGTFISDYSIALDK(18‑(((23R)-23-carboxyl-2,11,20-trioxo-10,19-diaza-4,7,13,16-tetraoxatricosyl-23-yl)amino)‑18‑oxooctadecanoic acid acetyl)LHQQDFVNWLLAQRG: in assay [1], the “EC50(pM) … (cAMP, HTRF)” value was determined as 4.26 pM. For the same molecule, the “EC50(pM), cell agonistic activity” value with human GLP-1 receptor was greater than 100 pM.

On to Y[Aib]EGTFISDYSIALDRLHQEDFVNWLLAQKG (also: long-acting conjugating component, site and structure not given here) [Peptide 16 (long-acting conjugate of GIP analog, Seq ID. 16)], for which the “EC50(pM) … (cAMP, HTRF)” value in assay [1] came to 3.77 pM. For the same molecule, the “EC50(pM), cell agonistic activity” value in the assay with human GLP-1 receptor is greater than 100 pM.

Y[Aib]EGTFISDYSIALDRIHQEDFVKWLLAQRG (also: long-acting conjugating component, site and structure not given here) [Peptide 11 (long-acting conjugate of GIP analog, Seq ID. 11)]: in assay [1], the “EC50(pM) … (cAMP, HTRF)” value is 3.5 pM. For the same molecule, in the assay with human GLP-1 receptor, the “EC50(pM), cell agonistic activity” value was greater than 100 pM.

Turning to Y[Aib]EGTFISDYSIALDK(18‑(((23R)-23-carboxyl-2,11,20-trioxo-10,19-diaza-4,7,13,16-tetraoxatricosyl-23-yl)amino)‑18‑oxooctadecanoic acid acetyl)IHQEDFVNWLLAQRG, in assay [1], the “EC50(pM) … (cAMP, HTRF)” value came to 7.24 pM. The “EC50(pM), cell agonistic activity” value with human GLP-1 receptor is greater than 100 pM.

As for Y[Aib]EGTFISDYSIALDEIHQKDFVNWLLAQRG (also: long-acting conjugating component, site and structure not given here) [Peptide 5 (long-acting conjugate of GIP analog, Seq ID. 5)], the “EC50(pM) … (cAMP, HTRF)” value in assay [1] was determined as 27 pM. Also, the “EC50(pM), cell agonistic activity” value in the assay with human GLP-1 receptor is greater than 100 pM.

As to Y[Aib]EGTFISDYSIALDK(18‑(((23R)-23-carboxyl-2,11,20-trioxo-10,19-diaza-4,7,13,16-tetraoxatricosyl-23-yl)amino)‑18‑oxooctadecanoic acid acetyl)LHQEDFVNWLLAQRG, in assay [1], the “EC50(pM) … (cAMP, HTRF)” value came out at 6.82 pM. In the assay with human GLP-1 receptor, the “EC50(pM), cell agonistic activity” value was greater than 100 pM.

For the molecule Y[Aib]EGTFISDYSIALDK(18‑(((23R)-23-carboxyl-2,11,20-trioxo-10,19-diaza-4,7,13,16-tetraoxatricosyl-23-yl)amino)‑18‑oxooctadecanoic acid acetyl)IHQQDFVNWLLAQRG, in assay [1], the “EC50(pM) … (cAMP, HTRF)” value is 6.66 pM. In addition, the “EC50(pM), cell agonistic activity” value with human GLP-1 receptor is greater than 100 pM.

Turning to Y[Aib]EGTFISDYSIALDRIHQEDFVNWLLAQKG (also: long-acting conjugating component, site and structure not given here) [Peptide 12 (long-acting conjugate of GIP analog, Seq ID. 12)], the “EC50(pM) … (cAMP, HTRF)” value in assay [1] came to 5.14 pM. Also, in the assay with human GLP-1 receptor, the “EC50(pM), cell agonistic activity” value was greater than 100 pM.
